Test results from patent US20180009871A1 (INTARCIA THERAPEUTICS, published 2018).
Where no end group is shown, it is not given here. [ ]: non-standard residue; d: D form. Aib = CC(C)(N)C(=O)O

B1: Compound A29 (peptide)
peptide: YSHGTFTSDYSKYLD[Aib]KRAQEFV[Aib]WLEDEPKSGAPPPS-OH
modifications: N-terminus assumed
SMILES: CC(C)C[C@H](NC(=O)[C@H](Cc1ccc(O)cc1)NC(=O)[C@H](CCCCN)NC(=O)[C@H](CO)NC(=O)[C@H](Cc1ccc(O)cc1)NC(=O)[C@H](CC(=O)O)NC(=O)[C@H](CO)NC(=O)[C@@H](NC(=O)[C@H](Cc1ccccc1)NC(=O)[C@@H](NC(=O)CNC(=O)[C@H](Cc1c[nH]cn1)NC(=O)[C@H](CO)NC(=O)[C@@H](N)Cc1ccc(O)cc1)[C@@H](C)O)[C@@H](C)O)C(=O)N[C@@H](CC(=O)O)C(=O)NC(C)(C)C(=O)N[C@@H](CCCCN)C(=O)N[C@@H](CCCNC(=N)N)C(=O)N[C@@H](C)C(=O)N[C@@H](CCC(N)=O)C(=O)N[C@@H](CCC(=O)O)C(=O)N[C@@H](Cc1ccccc1)C(=O)N[C@H](C(=O)NC(C)(C)C(=O)N[C@@H](Cc1c[nH]c2ccccc12)C(=O)N[C@@H](CC(C)C)C(=O)N[C@@H](CCC(=O)O)C(=O)N[C@@H](CC(=O)O)C(=O)N[C@@H](CCC(=O)O)C(=O)N1CCC[C@H]1C(=O)N[C@@H](CCCCN)C(=O)N[C@@H](CO)C(=O)NCC(=O)N[C@@H](C)C(=O)N1CCC[C@H]1C(=O)N1CCC[C@H]1C(=O)N1CCC[C@H]1C(=O)N[C@@H](CO)C(=O)O)C(C)C
B2: Compound A34 (peptide)
peptide: YTHGTFTSDHSKWLD[Aib]KRAQEFV[Aib]WLEDEPSSGAPPPS-OH
modifications: N-terminus assumed
SMILES: CC(C)C[C@H](NC(=O)[C@H](Cc1c[nH]c2ccccc12)NC(=O)[C@H](CCCCN)NC(=O)[C@H](CO)NC(=O)[C@H](Cc1c[nH]cn1)NC(=O)[C@H](CC(=O)O)NC(=O)[C@H](CO)NC(=O)[C@@H](NC(=O)[C@H](Cc1ccccc1)NC(=O)[C@@H](NC(=O)CNC(=O)[C@H](Cc1c[nH]cn1)NC(=O)[C@@H](NC(=O)[C@@H](N)Cc1ccc(O)cc1)[C@@H](C)O)[C@@H](C)O)[C@@H](C)O)C(=O)N[C@@H](CC(=O)O)C(=O)NC(C)(C)C(=O)N[C@@H](CCCCN)C(=O)N[C@@H](CCCNC(=N)N)C(=O)N[C@@H](C)C(=O)N[C@@H](CCC(N)=O)C(=O)N[C@@H](CCC(=O)O)C(=O)N[C@@H](Cc1ccccc1)C(=O)N[C@H](C(=O)NC(C)(C)C(=O)N[C@@H](Cc1c[nH]c2ccccc12)C(=O)N[C@@H](CC(C)C)C(=O)N[C@@H](CCC(=O)O)C(=O)N[C@@H](CC(=O)O)C(=O)N[C@@H](CCC(=O)O)C(=O)N1CCC[C@H]1C(=O)N[C@@H](CO)C(=O)N[C@@H](CO)C(=O)NCC(=O)N[C@@H](C)C(=O)N1CCC[C@H]1C(=O)N1CCC[C@H]1C(=O)N1CCC[C@H]1C(=O)N[C@@H](CO)C(=O)O)C(C)C
B3: Compound A31 (peptide)
peptide: YSHGTFTSDYSKYLD[Aib]KRAQEFV[Aib]WLEDEPESGAPPPS-OH
modifications: N-terminus assumed
SMILES: CC(C)C[C@H](NC(=O)[C@H](Cc1ccc(O)cc1)NC(=O)[C@H](CCCCN)NC(=O)[C@H](CO)NC(=O)[C@H](Cc1ccc(O)cc1)NC(=O)[C@H](CC(=O)O)NC(=O)[C@H](CO)NC(=O)[C@@H](NC(=O)[C@H](Cc1ccccc1)NC(=O)[C@@H](NC(=O)CNC(=O)[C@H](Cc1c[nH]cn1)NC(=O)[C@H](CO)NC(=O)[C@@H](N)Cc1ccc(O)cc1)[C@@H](C)O)[C@@H](C)O)C(=O)N[C@@H](CC(=O)O)C(=O)NC(C)(C)C(=O)N[C@@H](CCCCN)C(=O)N[C@@H](CCCNC(=N)N)C(=O)N[C@@H](C)C(=O)N[C@@H](CCC(N)=O)C(=O)N[C@@H](CCC(=O)O)C(=O)N[C@@H](Cc1ccccc1)C(=O)N[C@H](C(=O)NC(C)(C)C(=O)N[C@@H](Cc1c[nH]c2ccccc12)C(=O)N[C@@H](CC(C)C)C(=O)N[C@@H](CCC(=O)O)C(=O)N[C@@H](CC(=O)O)C(=O)N[C@@H](CCC(=O)O)C(=O)N1CCC[C@H]1C(=O)N[C@@H](CCC(=O)O)C(=O)N[C@@H](CO)C(=O)NCC(=O)N[C@@H](C)C(=O)N1CCC[C@H]1C(=O)N1CCC[C@H]1C(=O)N1CCC[C@H]1C(=O)N[C@@H](CO)C(=O)O)C(C)C
B4: Compound A33 (peptide)
peptide: YSHGTFTSDHSKWLD[Aib]KRAQEFV[Aib]WLEDEPSSGAPPPS-OH
modifications: N-terminus assumed
SMILES: CC(C)C[C@H](NC(=O)[C@H](Cc1c[nH]c2ccccc12)NC(=O)[C@H](CCCCN)NC(=O)[C@H](CO)NC(=O)[C@H](Cc1c[nH]cn1)NC(=O)[C@H](CC(=O)O)NC(=O)[C@H](CO)NC(=O)[C@@H](NC(=O)[C@H](Cc1ccccc1)NC(=O)[C@@H](NC(=O)CNC(=O)[C@H](Cc1c[nH]cn1)NC(=O)[C@H](CO)NC(=O)[C@@H](N)Cc1ccc(O)cc1)[C@@H](C)O)[C@@H](C)O)C(=O)N[C@@H](CC(=O)O)C(=O)NC(C)(C)C(=O)N[C@@H](CCCCN)C(=O)N[C@@H](CCCNC(=N)N)C(=O)N[C@@H](C)C(=O)N[C@@H](CCC(N)=O)C(=O)N[C@@H](CCC(=O)O)C(=O)N[C@@H](Cc1ccccc1)C(=O)N[C@H](C(=O)NC(C)(C)C(=O)N[C@@H](Cc1c[nH]c2ccccc12)C(=O)N[C@@H](CC(C)C)C(=O)N[C@@H](CCC(=O)O)C(=O)N[C@@H](CC(=O)O)C(=O)N[C@@H](CCC(=O)O)C(=O)N1CCC[C@H]1C(=O)N[C@@H](CO)C(=O)N[C@@H](CO)C(=O)NCC(=O)N[C@@H](C)C(=O)N1CCC[C@H]1C(=O)N1CCC[C@H]1C(=O)N1CCC[C@H]1C(=O)N[C@@H](CO)C(=O)O)C(C)C
B5: Compound A32 (peptide)
peptide: YTHGTFTSDYSKWLD[Aib]KRAQEFV[Aib]WLEDEPSSGAPPPS-OH
modifications: N-terminus assumed
SMILES: CC(C)C[C@H](NC(=O)[C@H](Cc1c[nH]c2ccccc12)NC(=O)[C@H](CCCCN)NC(=O)[C@H](CO)NC(=O)[C@H](Cc1ccc(O)cc1)NC(=O)[C@H](CC(=O)O)NC(=O)[C@H](CO)NC(=O)[C@@H](NC(=O)[C@H](Cc1ccccc1)NC(=O)[C@@H](NC(=O)CNC(=O)[C@H](Cc1c[nH]cn1)NC(=O)[C@@H](NC(=O)[C@@H](N)Cc1ccc(O)cc1)[C@@H](C)O)[C@@H](C)O)[C@@H](C)O)C(=O)N[C@@H](CC(=O)O)C(=O)NC(C)(C)C(=O)N[C@@H](CCCCN)C(=O)N[C@@H](CCCNC(=N)N)C(=O)N[C@@H](C)C(=O)N[C@@H](CCC(N)=O)C(=O)N[C@@H](CCC(=O)O)C(=O)N[C@@H](Cc1ccccc1)C(=O)N[C@H](C(=O)NC(C)(C)C(=O)N[C@@H](Cc1c[nH]c2ccccc12)C(=O)N[C@@H](CC(C)C)C(=O)N[C@@H](CCC(=O)O)C(=O)N[C@@H](CC(=O)O)C(=O)N[C@@H](CCC(=O)O)C(=O)N1CCC[C@H]1C(=O)N[C@@H](CO)C(=O)N[C@@H](CO)C(=O)NCC(=O)N[C@@H](C)C(=O)N1CCC[C@H]1C(=O)N1CCC[C@H]1C(=O)N1CCC[C@H]1C(=O)N[C@@H](CO)C(=O)O)C(C)C
B6: Compound A30 (peptide)
peptide: YSHGTFTSDYSKYLD[Aib]KRAQEFV[Aib]WLEDEPSKGAPPPS-OH
modifications: N-terminus assumed
SMILES: CC(C)C[C@H](NC(=O)[C@H](Cc1ccc(O)cc1)NC(=O)[C@H](CCCCN)NC(=O)[C@H](CO)NC(=O)[C@H](Cc1ccc(O)cc1)NC(=O)[C@H](CC(=O)O)NC(=O)[C@H](CO)NC(=O)[C@@H](NC(=O)[C@H](Cc1ccccc1)NC(=O)[C@@H](NC(=O)CNC(=O)[C@H](Cc1c[nH]cn1)NC(=O)[C@H](CO)NC(=O)[C@@H](N)Cc1ccc(O)cc1)[C@@H](C)O)[C@@H](C)O)C(=O)N[C@@H](CC(=O)O)C(=O)NC(C)(C)C(=O)N[C@@H](CCCCN)C(=O)N[C@@H](CCCNC(=N)N)C(=O)N[C@@H](C)C(=O)N[C@@H](CCC(N)=O)C(=O)N[C@@H](CCC(=O)O)C(=O)N[C@@H](Cc1ccccc1)C(=O)N[C@H](C(=O)NC(C)(C)C(=O)N[C@@H](Cc1c[nH]c2ccccc12)C(=O)N[C@@H](CC(C)C)C(=O)N[C@@H](CCC(=O)O)C(=O)N[C@@H](CC(=O)O)C(=O)N[C@@H](CCC(=O)O)C(=O)N1CCC[C@H]1C(=O)N[C@@H](CO)C(=O)N[C@@H](CCCCN)C(=O)NCC(=O)N[C@@H](C)C(=O)N1CCC[C@H]1C(=O)N1CCC[C@H]1C(=O)N1CCC[C@H]1C(=O)N[C@@H](CO)C(=O)O)C(C)C
B7: Compound A28 (peptide)
peptide: YSHGTFTSDYSKYLD[Aib]KRAQEFV[Aib]WLEDEGPSSGAPPPS-OH
modifications: N-terminus assumed
SMILES: CC(C)C[C@H](NC(=O)[C@H](Cc1ccc(O)cc1)NC(=O)[C@H](CCCCN)NC(=O)[C@H](CO)NC(=O)[C@H](Cc1ccc(O)cc1)NC(=O)[C@H](CC(=O)O)NC(=O)[C@H](CO)NC(=O)[C@@H](NC(=O)[C@H](Cc1ccccc1)NC(=O)[C@@H](NC(=O)CNC(=O)[C@H](Cc1c[nH]cn1)NC(=O)[C@H](CO)NC(=O)[C@@H](N)Cc1ccc(O)cc1)[C@@H](C)O)[C@@H](C)O)C(=O)N[C@@H](CC(=O)O)C(=O)NC(C)(C)C(=O)N[C@@H](CCCCN)C(=O)N[C@@H](CCCNC(=N)N)C(=O)N[C@@H](C)C(=O)N[C@@H](CCC(N)=O)C(=O)N[C@@H](CCC(=O)O)C(=O)N[C@@H](Cc1ccccc1)C(=O)N[C@H](C(=O)NC(C)(C)C(=O)N[C@@H](Cc1c[nH]c2ccccc12)C(=O)N[C@@H](CC(C)C)C(=O)N[C@@H](CCC(=O)O)C(=O)N[C@@H](CC(=O)O)C(=O)N[C@@H](CCC(=O)O)C(=O)NCC(=O)N1CCC[C@H]1C(=O)N[C@@H](CO)C(=O)N[C@@H](CO)C(=O)NCC(=O)N[C@@H](C)C(=O)N1CCC[C@H]1C(=O)N1CCC[C@H]1C(=O)N1CCC[C@H]1C(=O)N[C@@H](CO)C(=O)O)C(C)C

Target: human glucagon receptor (GCGR) (human, UniProt P47871 26-477)
Test: cell-based or functional assay

Row | Binder | hGCGR pEC50 (cAMP) [pEC50]
1 | B1 | 11.1
2 | B2 | 10.3
3 | B3 | 11.7
4 | B4 | 10.9
5 | B5 | 12.5
6 | B6 | 10.9
7 | B7 | 12.2

Target: human GLP-1 receptor (GLP-1R) (human, UniProt P43220 24-463)
Sequence (P43220 24-463): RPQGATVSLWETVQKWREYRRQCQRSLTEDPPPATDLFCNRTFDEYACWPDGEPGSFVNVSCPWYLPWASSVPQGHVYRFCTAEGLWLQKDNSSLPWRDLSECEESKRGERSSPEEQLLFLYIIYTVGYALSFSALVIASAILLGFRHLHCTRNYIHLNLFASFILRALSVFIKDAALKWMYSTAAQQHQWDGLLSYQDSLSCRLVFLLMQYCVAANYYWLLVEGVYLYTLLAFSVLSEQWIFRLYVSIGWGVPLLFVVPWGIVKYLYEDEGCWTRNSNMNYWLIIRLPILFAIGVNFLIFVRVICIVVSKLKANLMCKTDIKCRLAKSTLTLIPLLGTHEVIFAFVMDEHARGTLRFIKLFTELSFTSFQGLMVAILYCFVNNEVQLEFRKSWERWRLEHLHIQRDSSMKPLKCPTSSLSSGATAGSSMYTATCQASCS
Test: cell-based or functional assay

Row | Binder | hGLP1 pEC50 (cAMP) [pEC50]
8 | B1 | < 9
9 | B2 | < 9
10 | B3 | < 9
11 | B4 | < 9
12 | B5 | < 9
13 | B6 | < 9
14 | B7 | < 9
